Assay results reported in publication PMC4980823 (Science (New York, N.Y.), 2016).
Read-outs that look alike come from different tables or passages of the source.

B3: Rpn1 (412–625) (domain or fragment, yeast, UniProt P38764 412-625, looked up)
chain: GDGMTSAVASIGSIYQWNLDGLQQLDKYLYVDEPEVKAGALLGIGISASGVHDGEVEPALLLLQDYVTNPDTKISSAAILGLGIAFAGSKNDEVLGLLLPIAASTDLPIETAAMASLALAHVFVGTCNGDITTSIMDNFLERTAIELKTDWVRFLALALGILYMGQGEQVDDVLETISAIEHPMTSAIEVLVGSCAYTGTGDVLLIQDLLHRLT

Assays:
Rpn1 (412–625) = target: B3; experiment: ITC
ubiquitin [1] = target: T1, ubiquitin (UniProt P0CG48 1-76); experiment: NMR titration
dynamic light scattering = target: the molecule itself; experiment: dynamic light scattering
ubiquitin [2] = target: T1, ubiquitin; experiment: NMR titration; remark: listed apart in the source

B1: Rad23 UBL domain (amino acids 1–78) (domain or fragment, yeast, UniProt P32628 1-78, looked up)
chain: MVSLTFKNFKKEKVPLDLEPSNTILETKTKLAQSISCEESQIKLIYSGKVLQDSKTVSECGLKDGDQVVFMVSQKKST
Kd (Rpn1 (412–625)): 64 ± 25 nM

B2: Rpn13 Pru domain (amino acids 1–150), no substitutions (domain or fragment, yeast, UniProt O13563 1-150, looked up)
chain: MSMSSTVIKFRAGVCEYNEDSRLCTPIPVQGEIEIKPNEEEELGFWDFEWRPTEKPVGRELDPISLILIPGETMWVPIKSSKSGRIFALVFSSNERYFFWLQEKNSGNLPLNELSAKDKEIYNKMIGVLNNSSESDEEESNDEKQKAQDV
binding result (ubiquitin [1]): binds

B3
binding result (dynamic light scattering): binds
binding result (ubiquitin [2]): binds
